Results taken from publication PMC4531439, “New insights into the molecular mechanism of the Rab GTPase Sec4p activation” (BMC Structural Biology, 2015).

Molecular target: the molecule itself
Assay: cell-based or functional assay

B1: Sec2p (51–142) (domain or fragment, UniProt P17065 51-142, looked up)
chain: NYNQLKEDYNTLKRELSDRDDEVKRLREDIAKENELRTKAEEEADKLNKEVEDLTASLFDEANNMVADARKEKYAIEILNKRLTEQLREKDT
For B1, the “mantGDP dissociation rate from Sec4p(19-187) stimulated by 500 nM Sec2p(51-142), compared with Sec2p(1-160)” value was 20 fold slower than Sec2p 1-160.
